What all share (test): EMSA
What all share (details): 10 mM Tris pH 8, 150 mM KCl, 500 nM EDTA, 0.1% Triton X-100, 12.5% glycerol, 1 mM DTT, 1 ug poly(dI-dC), 4 C, 30 min
In general terms: A gel shift assay detects complexes by their altered migration in electrophoresis.

The target in data set [1] is T1, HetR S127A S127A (Nostoc PCC 7120) (UniProt P27709).
T1 sequence: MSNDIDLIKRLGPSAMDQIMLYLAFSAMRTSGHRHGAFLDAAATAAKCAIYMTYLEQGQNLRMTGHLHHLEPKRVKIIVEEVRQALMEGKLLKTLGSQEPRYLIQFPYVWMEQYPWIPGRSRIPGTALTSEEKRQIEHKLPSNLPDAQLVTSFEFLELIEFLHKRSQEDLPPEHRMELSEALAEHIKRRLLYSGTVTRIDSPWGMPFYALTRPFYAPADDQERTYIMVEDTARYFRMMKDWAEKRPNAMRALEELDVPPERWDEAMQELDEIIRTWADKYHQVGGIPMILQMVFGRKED

The target in data set [2] is T2, HetR S130A S130A (Nostoc PCC 7120) (UniProt P27709).
T2 sequence: T1 sequence with A127S, S130A

Data set [3] addresses T3, HetR S130D S130D (Nostoc PCC 7120) (UniProt P27709).
T3 sequence: T1 sequence with A127S, S130D

Data set [4] deals with T4, HetR S179A S179A (Nostoc PCC 7120) (UniProt P27709).
T4 sequence: T1 sequence with A127S, S179A

Changes are numbered by the printed parent chain.

For the sequence “TGAGTTATACGCTATATCAATGGGGATTTTGAGCATTTTCTACTAGGTAATGAGGGGTTAGACCCCTCGCCTACTGTGCATTTGAGACTTTAAACCTACTAAGAGAATTTACCACTAAAT (double strand) [hetP promoter]”, the binding entry in data set [1] is listed as “binds”; in data set [2] it was “binds”; in data set [3] it was “binds”; in data set [4], “no binding”.

For the origin of these results see PMC6985446.
